B1: IgG ER-2a (antibody, V domains shown)
VH: EVQLVESGGGLVQPGGSLRLSCAASGFDVYYAAMHWVRQAPGKGLEWVASISPYYGYTSYADSVKGRFTISADTSKNTAYLQMNSLRAEDTAVYYCARYYHFSWHWSSFGGSYYPGMDYWGQGTLVTVSS
VL: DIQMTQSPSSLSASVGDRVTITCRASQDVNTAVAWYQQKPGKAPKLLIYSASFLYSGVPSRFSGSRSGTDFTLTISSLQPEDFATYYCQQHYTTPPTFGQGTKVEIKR
notes: IgG; also called Ab ER-2a
B2: IgG ER-3a (antibody, V domains shown)
VH: EVQLVESGGGLVQPGGSLRLSCAASGFDLYSYSMHWVRQAPGKGLEWVASVSPSSGSTYYADSVKGRFTISADTSKNTAYLQMNSLRAEDTAVYYCARHWHVYPSYYWGGFDYWGQGTLVTVSS
VL: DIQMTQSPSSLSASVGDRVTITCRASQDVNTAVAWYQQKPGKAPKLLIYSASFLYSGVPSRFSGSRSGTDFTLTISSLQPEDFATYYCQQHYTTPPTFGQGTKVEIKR
notes: IgG; also called Ab ER-3a

How the values were obtained:
human EGFR [1] = target: T1, human EGFR (human, UniProt P00533 25-645); assay: SPR with purified IgG on EGFR; column head 10^5 (s-1M-1)
T1 construct: Recombinant EGFR as used in SPR, ELISA and BLI; The phage selections used the EGFR ectodomain; also called immobilized EGFR; EGFR ectodomain (ECD)

human EGFR [2] = target: T1, human EGFR; assay: SPR, IgG; optimized variant IgG ER-2a
human EGFR [3] = target: T1, human EGFR; assay: SPR with purified IgG on EGFR; column head 10^-4 (s-1)
EGFR-D28 = target: T2, EGFR-D28 (Homo sapiens (Human), UniProt P00533 25-1210); assay: flow cytometry on transfected cells
T2 construct: The deletion Cys240-Cys267 must be applied to the entry

EGFRvIII = target: T3, EGFRvIII (UniProt P00533 25-1210); assay: flow cytometry on transfected cells
T3 construct: whole, on cells; The deletion must be applied to it

EGFR fragment D3-D4 = EGFR fragment D3-D4 (Homo sapiens (Human), UniProt P00533 334-645, limits assumed); assay: flow cytometry on transfected HEK293T cells
EGFR fragment D1-D2 = EGFR fragment D1-D2 (Homo sapiens (Human), UniProt P00533 25-334, limits assumed); assay: flow cytometry on transfected HEK293T cells, saturating IgG, signal normalized

| Binder | kon (human EGFR [1]) | Kd (human EGFR [2]) | koff (human EGFR [3]) | binding result (EGFR-D28) | binding result (EGFRvIII) | binding result (EGFR fragment D3-D4) | binding result (EGFR fragment D1-D2) |
| --- | --- | --- | --- | --- | --- | --- | --- |
| B1 | 220000 M⁻¹ s⁻¹ | 0.28 nM | 6.1e-05 s⁻¹ | no binding (tested: saturating IgG concentrations) | no binding (tested: saturating IgG concentrations) | no binding (tested: saturating IgG concentrations) |  |
| B2 |  |  |  |  |  |  | no binding |
